This passage reports Kd results from PMC3019558 (The Journal of Cell Biology, 2011).

A word on the Kd: it is a measure of binding affinity in units of concentration. Higher therefore signals a looser complex.

For one test, the target named is GDNF, NRTN, and ARTN. Put plainly: SPR. (SPR reads the build-up and loss of mass on a sensor chip optically.)
Test [1] has as its target HS-carrying extracellular domain of syndecan-3 purified from rat brain (rat, UniProt P33671 45-387, heparan sulfate (HS) chains). In words: SPR.

HS-carrying extracellular domain of syndecan-3 purified from rat brain (rat, UniProt P33671 45-387, heparan sulfate (HS) chains), sequence (P33671 45-387): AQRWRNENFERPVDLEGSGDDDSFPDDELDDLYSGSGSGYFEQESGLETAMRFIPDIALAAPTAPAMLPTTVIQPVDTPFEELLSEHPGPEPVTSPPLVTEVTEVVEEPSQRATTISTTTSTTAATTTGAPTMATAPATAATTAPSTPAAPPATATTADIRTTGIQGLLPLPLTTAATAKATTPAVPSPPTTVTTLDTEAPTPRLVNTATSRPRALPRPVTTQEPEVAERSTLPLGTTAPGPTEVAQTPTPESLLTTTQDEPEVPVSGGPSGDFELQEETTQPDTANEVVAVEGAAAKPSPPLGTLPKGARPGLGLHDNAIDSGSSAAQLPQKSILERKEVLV

The molecule “HS-carrying extracellular domain of syndecan-3 purified from rat brain (from UniProt P33671 45-387) (domain or fragment)” returned a Kd in the test with GDNF, NRTN, and ARTN of 10 to 50 nM.

B1: persephin (PSPN) (ligand, UniProt O60542 61-156, looked up)
chain: ALSGPCQLWSLTLSVAELGLGYASEEKVIFRYCAGSCPRGARTQHGLALARLQGQGRAHGGPCCRPTRYTDVAFLDDRHRWQRLPQLSAAACGCGG
In turn, B1 showed a Kd in test [1] above 70 nM.
